From the supplement of paper PMC9170038

Experiments:
[1] = test system: MS2 coat protein; experiment: apparent KD of MS2 coat protein; higher = weaker reporter binding; conditions: Eterna round: R101
Description: (§1)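 RNA-MaP: designed FMN/MS2 RNA switches (84 nt design region) are transcribed on-chip within common flanks and titrated with SNAP-549-labelled MS2 coat protein (about 1-3000 nM) in 100 mM Tris pH 7.5, 80 mM KCl, 4 mM MgCl2, without or with 200 uM FMN. Median apparent KD per design; activation ratio = KD,OFF / KD,ON.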

[2] = test system: MS2 coat protein; experiment: apparent KD of MS2 coat protein; designed switch direction (-1 OFF switch, 1 ON switch): 1; higher = weaker reporter binding; conditions: Eterna round: R98
Description: as §1

[3] = test system: MS2 coat protein; experiment: apparent KD of MS2 coat protein, switch ON state; designed switch direction (-1 OFF switch, 1 ON switch): 1; higher = weaker reporter binding; conditions: FMN input: 0 or 200 uM; Eterna round: R93 (includes R88 designs)
Summary of the method: (§2)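 Apparent KD is reported per design as the median of normalised binding-curve fits across its clusters. The RNA switches were made by on-chip transcription from Illumina sequencing clusters. SNAP-549-labelled MS2 coat protein was then added in twofold steps (0.7 or 1.5 nM to 3 µM; 0.8–1.5 h to 10–20 min per step) in 100 mM Tris-HCl pH 7.5, 80 mM KCl, 4 mM MgCl2, without or with constant ligand.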

[4] = test system: MS2 coat protein; experiment: apparent KD of MS2 coat protein, switch OFF state (with FMN for OFF switches, without FMN for ON switches); designed switch direction (-1 OFF switch, 1 ON switch): 1; higher = weaker reporter binding; conditions: FMN input: 0 or 200 uM; Eterna round: R93 (includes R88 designs)
Summary of the method: as §2

Sequence | apparent KD of MS2 coat protein ([2]; input ligand: FMN 200 uM) | apparent KD of MS2 coat protein ([2]; input ligand: none) | further results
AAAGAUUUUUAAGGAUAUCAGUGGCAAAGCCACUGAGAAGGUGAGGAUCACCCACCUACGUGACCCUGGAAACAGGGUCACGAA [#SharedSequence - ExNG1-14] (puzzle (switch architecture): Exclusion NG 1) | – | – | apparent KD of MS2 coat protein ([1]; input ligand: FMN 200 uM): 14.7 nM; apparent KD of MS2 coat protein ([1]; input ligand: none): 13.2 nM
AAGAAGCUCACAGGAUAUCAGUAUAUGCUAUCUAGCGUAUUAAUGAACUGCUGAGAAGGGUGAGACAUGAGGAUCACCCAUGUA [Angeon] (puzzle (switch architecture): Small Loop Same State NG 1) | – | – | apparent KD of MS2 coat protein ([1]; input ligand: FMN 200 uM): 54 nM; apparent KD of MS2 coat protein ([1]; input ligand: none): 120 nM
GGUCGUCACAUCUACAUGAGGAUCACCCAUGUCGAAAGACAUGAGGAUAUGCAUCCUAAUUGGAUGCAGAAGGCAUGGACGACC [Mat - Same State NG 3 - JL Mod - D22] | 65.1 nM | 1920 nM | –
GUCCCUACAUGAGGAUCACCCAUGUGGGCGGUAAGGAGCCCACAGGAUAUGCGAAGGAGGACAUAGCAGAAGGGUGGUGUUCAG [Erenerbe] (puzzle (switch architecture): Same State NG 3) | – | – | apparent KD of MS2 coat protein ([1]; input ligand: FMN 200 uM): 33.5 nM; apparent KD of MS2 coat protein ([1]; input ligand: none): 308 nM
AGAACAUGAGGAUCACCCAUGUUAAGGUCGGUAAAUAAGGGUGAGGAUAUGCUUAAAAUAAGGUAGCAGAAGGUGCUUGGUGCA [SameState #76 NG3] | 146 nM | 163 nM | –
GCAGAAGGUGCAGAGGAUCACCCUGUAAGGAUAUGCAUUAGCAAGGAUAUACAGAGGAUCACCCUGUAGAAGGUGCACUACUCU [pwkr2 ssNG3 DX.2] | 420 nM | 2070 nM | –
GCUGCUAUCGCAGGAUAUUACAUGGGAAAGAAUACAUGAGGAUCACCCAUGUAAAAGAUCAUAAAUAAGAAGGGCGAUAGCAGC [Lame State 6 - Jieux - Same State NG 2] | 159 nM | 774 nM | –
GUCCCUACAUGAGGAUCACCCAUGUGGGCAGUAAGAAGCCCACAGGAUAUGCGAAGGAGGACAUAGCAGAAGGGUGGUGUUUAG [Reaninveri] (puzzle (switch architecture): Same State NG 3) | – | – | apparent KD of MS2 coat protein ([1]; input ligand: FMN 200 uM): 138 nM; apparent KD of MS2 coat protein ([1]; input ligand: none): 625 nM
ACAUACUUUCGAGGAUAUCGGUGAUAAAUUUGACGAGAAGGCGAUAAAAGAUAUAAUCUUAUAGACAUGAGGAUCACCCAUGUA [JR_SSNG1_Sub015] | 36.8 nM | 43.3 nM | –
CGUGUGGCAUGAGGAUAUGGUCAGCUUUGCUGACCAGAAGGCAUGUCAAUAGACAUGAGGAUCACCCAUGUAGUUAACACACGA [Mat - Same State NG 1 - JL Mod - D23] | 44 nM | 575 nM | –
CACACAUGGUGAGGAUAUGCAAAGGAUCACCUUGUAGAAGGCAUCAGGGUAGAAGGUGCAAGGAUCACCUGUAAGGAUAUAUCC [pwkr2 ssNG1 DX.24] | 395 nM | 1210 nM | –
AAUAAUUCUCAAGGAUAUCAGUGGCAAAGCCACUGAGAAGGUGAGGAUCACCCACCUACGUGACGCUGGAAACAGCGUCACGAA [#SharedSequence ExNG1 - 34] (puzzle (switch architecture): Exclusion NG 1) | – | – | apparent KD of MS2 coat protein ([1]; input ligand: FMN 200 uM): 164 nM; apparent KD of MS2 coat protein ([1]; input ligand: none): 30.5 nM
UCACUCACGUUAGGAUAUGGAUCGGAAAACGAUCCAGAAGGAACCUGCAAACCUGAGGAUCACCCAGGUUCCAAUAACGAGUGA [SameSame 7 - Jieux - Same State NG 1] | 259 nM | 368 nM | –
CACGUCCACACAGGAUAUGCUGGACUUUGUCCAGCAGAAGGGUGACAACAUGAGGAUCACCCAUGUAGGACGUGUAUAUUUAAG [Mat - Same State NG 1 - Eli mod - D100] | 188 nM | 2090 nM | –
CUGAAGUCUGACCCUCGAAACAUGAGGAUCACCCAUGUAGUCAGAAGGCGAUUGUGAGCAGGAAUCGAGGAUAUGAACUAGUUU [EternaBot1300] (puzzle (switch architecture): Inverted Exclusion NG 3) | – | – | apparent KD of MS2 coat protein ([1]; input ligand: FMN 200 uM): 9.99 nM
GCUGUCGCAUGAGGAUAUGGUCAGCUUUGCUGACCAGAAGGCAUGUCGAUAGACAUGAGGAUCACCCAUGUAGUAAAGACAGCA [jl-sng1-2.08 jl mod] | 66.6 nM | 693 nM | –
CACCUAAAUCCUAGAGGAUCACCCUAGGAUAUCACCGUCGAGGUGCCAUAAUGGCACCUCGACGGUGAGAAGGAGGGUAAAUAA [#SharedSequence - SLExNG3: 9] (puzzle (switch architecture): Small Loop Exclusion NG 3) | – | – | apparent KD of MS2 coat protein ([1]; input ligand: FMN 200 uM): 6.41 nM; apparent KD of MS2 coat protein ([1]; input ligand: none): 5.82 nM
CUUACUUUGUAGAAGGGUGACAUGAGGAUCACCCAUGUGCGUGGCCUGAAAGACCAGGGUACGCCACAGGAUAUACAAAGUAAG [Esatatina] (puzzle (switch architecture): Inverted Same State NG 2) | – | – | apparent KD of MS2 coat protein ([1]; input ligand: FMN 200 uM): 26.1 nM; apparent KD of MS2 coat protein ([1]; input ligand: none): 15.3 nM

Sequence | apparent KD of MS2 coat protein ([2]; input ligand: FMN 200 uM) | apparent KD of MS2 coat protein ([2]; input ligand: none) | further results
AAUAAACAAUAAAAGACUGGAGCAAACUUUUGAGGAUCACCCAGAAGGCGUCACCUAAUAGGUGACGAGGAUAUGGAGCUCCAG [#SharedSequence IExNG# - 4] (puzzle (switch architecture): Inverted Exclusion NG 3) | – | – | apparent KD of MS2 coat protein ([1]; input ligand: FMN 200 uM): 135 nM; apparent KD of MS2 coat protein ([1]; input ligand: none): 17.3 nM
UUACGUCCCGUUUACAUGAGGAUCACCCAUGUCGAAAGAACCGAGGAUAUGCUACCUAGUUGGUAGCAGAAGGCGGAAACGUCG [salish99_SSNG3_r02_008] | 42.3 nM | 25.9 nM | –
GCGGGCCUCACAGGAUAUCUGGUCCCGACAUGAGGAUCACCCAUGUAGGGCAGCUUAAGAAUGCCAGAGAAGGGUGACCAAUAU [Xexemaeron] | 102 nM | 315 nM | –
CAUGUCCUCACAGGAUAUGCUGGACUUUGUCCAGCAGAAGGGUGAACAUGAGGAUCACCCAUGUUGUGGACAUGUAUAUUUAAU [Denovo 12] | 526 nM | 394 nM | –
CACACAUGAGGAUCACCCAUGUCGUGGGCGGAAAACUGUGCACAGGAUAUGGUGAGGGCAACUCACCAGAAGGGUGGUCAGGAA [Zaenen] | 63.1 nM | 100 nM | –
CGGAUGCAAAUAAAACAUGAGGAUCACCCAUGUGAGUCUCAUGAGGAUAUGCAGGUCAAAGACUUGCAGAAGGCAUGGCGUCCG [Mat - Same State NG 3 - JL Mod - D71] | 107 nM | 1840 nM | –
AAAAAACAUGAGGAUCACCCAUGUAGAAACAUGGGAGGAUAUACAAAGACGAAAGUCAAAGUAGAAGGCCUAAGAA [Mat - Same State 1 - Mod - D166] | – | – | apparent KD of MS2 coat protein [3]: 81.8 nM; apparent KD of MS2 coat protein [4]: 58.2 nM
AAUAAACAUGAGGAUCACCCAUGUGAAAAUAUGGGAGGAUAUAGGAAAAAAAAAAAAAAACUAGAAGGCCCAAAAA [SS! 1 MT 12] | – | – | apparent KD of MS2 coat protein [3]: 75.3 nM; apparent KD of MS2 coat protein [4]: 138 nM
AGGAGACAUGAGGAUCACCCAUGUGAGAAGAGGCGAGGAUAUCGAAAGAAAGAAGAGAAACGAGAAGGCGCGAGUU [salish99-SS1-022] | – | – | apparent KD of MS2 coat protein [3]: 25.5 nM; apparent KD of MS2 coat protein [4]: 33.8 nM
GUAGAACAUGAGGAUCACCCAUGUGAAGACGCAUGAGGAUAUAUCCGUACAUAGCAUACGAUAGAAGGCAUGAUAA [JR_SS001_Sub1704] | – | – | apparent KD of MS2 coat protein [3]: 29.6 nM; apparent KD of MS2 coat protein [4]: 90.6 nM
GAGAAACAUGAGGAUCACCCAUGUAGAAAUAUGGGAGGAUAUACAAAGACGAGAGUCAAAGUAGAAGGCCUAGAAG [77%, Mat - Mod of Eli - With 3 more G's] | – | – | apparent KD of MS2 coat protein [3]: 18.8 nM; apparent KD of MS2 coat protein [4]: 53.6 nM
AAAACAUGAGGAUCACCCAUGUAAAGAACGGUUAAUAAAAGUGAGGAUAUACAAAAUUUUAUAUAGUAGAAGGCACUGGGUACA [JR_SSNG3_Sub008] | 23.9 nM | 20.6 nM | –
AACGUGACGACAUAGGAUAUGUACACACGUACAUGAGGAUCACCCAUGUGACUAGUAAUCGUGUGGCAGAAGGGUGAAGUCUCGA [Anzasousra] | – | – | apparent KD of MS2 coat protein [3]: 21.4 nM; apparent KD of MS2 coat protein [4]: 31.4 nM
CAGCAAUUCUUAGGAUAUGCUCAGGAAUACUGAGCAGAAGGAAGAUAUACCUGAGGAUCACCCAGGUUAAACUGAAGCUGAAAA [Same State NG1 - A3C, U17G Submission 7A] | 28.5 nM | 21.2 nM | –
AGGAAACAUGAGGAUCACCCAUGUAAAAAUAUGGAAGGAUAUGGAAACACGAAAGUGAAACCAGAAGGUCCGAAAA [77%, Mat - Mod of Eli, 19] | – | – | apparent KD of MS2 coat protein [3]: 13.1 nM; apparent KD of MS2 coat protein [4]: 23.1 nM
UGUUUGAGCAUAGGAUAUACUGGGAAGGUCCACAUGAGGAUCACCCAUGUAGAGGCUGUUAGACAGUAGAAGGGUGAUCCGAUA [Zariatbege] | 410 nM | 9.94 nM | –
AUAUAUAUAAGGUAGGAUAUCCAAAAGUAAACAUGAGGAUCACCCAUGUAAAAAAUCUAAAAAUGGGAGAAGGACCAUAUAUAUA | – | – | apparent KD of MS2 coat protein [3]: 19 nM; apparent KD of MS2 coat protein [4]: 37.1 nM
AAAAAACAUGAGGAUCACCCAUGUCGAAAGACAUGAGGAUAUGUGUGGAAACCAUACUAUACAGAAGGCAUAAAAA [SS1 - 1009] | – | – | apparent KD of MS2 coat protein [3]: 82.6 nM; apparent KD of MS2 coat protein [4]: 66.1 nM
